Assay results taken from US20110229475A1 (GlaxoSmithKline, published 2011).

Biological target: T1, human IL-8 (human, UniProt P10145 28-99, limits assumed)
T1 construct: also called hIL-8; hIL8
Assay: TRFIA, chemokine coated on plate, biotinylated anti-mouse IgG and streptavidin-europium detection
Method: Briefly, each antigen (human IL-8, Gro-alpha, Gro-beta, Gro-gamma, GCP-2, and ENA-78, and hIL-18 when used as negative control) is individually coated onto a 96-well immunofluorescent plate. The plates are then washed and blocked with a commercially available blocking solution. Blocking solution is emptied and samples containing the mAb are added into each well and incubated for 40 to 60 minutes (this allows the mAb to bind to the target chemokines). The plates are then washed again and a detection Ab is added to each well. […] The detection antibody is conjugated to either europium or biotin. Following another round of washing, to remove unbound detection Ab, a solution of streptavidin-europium was added to biotin detected assays. Streptavidin-europium binds to the biotin allowing for detection. After a final wash to remove unbound streptavidin-europium, or in the case of the humanized MAb assay after the europium conjugate secondary is washed, each well is filled with a chelating detergent solution to activate the europium producing fluorescence. The greater the fluorescence recorded is directly proportionate to the amount of detection Ab present in the well which is directly linked and proportionate to the amount of the chemokine binding mAb.

- EC50 (read off the curve): ~0.04 µg/mL
B1: mouse monoclonal antibody 656.35 (antibody, IgG2a, V domains shown)
VH: QVQLQQSGAELVRPGTSVTISCKASGYTFTNYWIVWVKQRPGHGLEWIGDLYSGGGYTFYSENFKGKATLTADTSSSTAYMHLISLTSEDSAVYFCARSGYDRTWFAHWGQGSLVTVSA
VL: DIKMTQSPSSMSASLGERVTITCQASQDIESYLSWYQQKPWKSPKTLIYYATRLADGVPSRFSGSGSGQDYSLTISSLESDDTATYYCLQHGESPPTFGAGTKLELKR
notes: Murine hybridoma antibody; also called 2x656.35
